Results from KR20180006452A (dated 2018).
Where a chain is given by its changes, count along the chain named. Names may count otherwise.

B1: Ab1H-P1394m/Ab1L (antibody, human IgG1, kappa)
heavy: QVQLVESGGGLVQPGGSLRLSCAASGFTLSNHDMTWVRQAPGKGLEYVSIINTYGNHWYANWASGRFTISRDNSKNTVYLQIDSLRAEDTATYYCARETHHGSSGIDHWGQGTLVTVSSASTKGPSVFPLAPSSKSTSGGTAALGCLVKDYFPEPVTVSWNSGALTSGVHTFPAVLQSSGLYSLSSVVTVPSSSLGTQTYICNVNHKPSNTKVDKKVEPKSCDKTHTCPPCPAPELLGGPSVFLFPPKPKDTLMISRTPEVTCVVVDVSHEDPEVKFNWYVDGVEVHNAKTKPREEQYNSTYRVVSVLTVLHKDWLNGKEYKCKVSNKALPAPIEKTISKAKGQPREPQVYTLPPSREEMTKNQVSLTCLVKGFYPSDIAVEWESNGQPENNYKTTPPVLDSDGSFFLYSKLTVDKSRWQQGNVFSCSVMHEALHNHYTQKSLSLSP
light: DIQMTQSPSSVSASVGDRVTITCQASESIYSGLAWYQQKPGQPPKLLIYDHSTLASGVPSRFSGSGSGTEYALTISSLQPEDFATYYCQHADYAHHSDNVFGGGTKVEIKRTVAAPSVFIFPPSDEQLKSGTASVVCLLNNFYPREAKVQWKVDNALQSGNSQESVTEQDSKDSTYSLSSTLTLSKADYEKHKVYACEVTHQGLSSPVTKSFNRGEC
notes: Ab1H with Q311K (EU numbering)
B2: H1009/L395-F1886s (antibody)
heavy: QVQLVESGGGLVQPGGSLRLSCAASGFTFSDYYLSWVRQAPGKGLEWVGLIRNKDNYHTPEYSASVKGRFTISRDDSKNSLYLTMSDLKTEDTAVYYCARENHRYDVELAYWGQGTLVTVSSASTKGPSVFPLAPSSKSTSGGTAALGCLVKDYFPEPVTVSWNSGALTSGVHTFPAVLQSSGLYSLSSVVTVPSSSLGTQTYICNVNHKPSNTKVDKKVEPKSCDKTHTCPPCPAPELRRGPKVFLFPPKPKDTLMISRTPEVTCVVVDVSHEDPEVKFNWYVDGVEVHNAKTKPREEQYNSTYRVVSVLTVLHQDWLNGKEYKCKVSNKALPAPIEKTISKAKGQPREPQVYTLPPSREEMTKNQVSLTCLVKGFYPSDIAVEWESNGQPENNYKTTPPVLDSDGSFFLYSKLTVDKSRWQQGNVFSCSVLHEALHAHTTRKELSLSP
light: DIQMTQSPSSLSASVGDRVTITCRASEIIYSYLAWYQQKPGKAPKLLIYKAKTHADGVPSRFSGSGSGTDFTFTISSLQPEDIATYYCKHHFGFPRTFGQGTKVEIKRTVAAPSVFIFPPSDEQLKSGTASVVCLLNNFYPREAKVQWKVDNALQSGNSQESVTEQDSKDSTYSLSSTLTLSKADYEKHKVYACEVTHQGLSSPVTKSFNRGEC
notes: also called H1009-F1886s/L395-k0MT
B3: H1009/L395-F1974m (antibody)
heavy: B2 heavy with K244S, A332G, A335S, P336S
light: B2 light
notes: also called H1009-F1974m/L395-k0MT

Tests used:
가용형 인간 FcγRIIb = biological target: T1, 가용형 인간 FcγRIIb (human, UniProt P31994 43-217, limits assumed); assay: SPR (BIACORE T200), hFcγRIIb captured by anti-His antibody, IgE-antibody complex as analyte, pH 7.4, 25C
T1 construct: also called hFcγRIIb; hFcγRII2b; not shown: His tag
T1 sequence (looked up): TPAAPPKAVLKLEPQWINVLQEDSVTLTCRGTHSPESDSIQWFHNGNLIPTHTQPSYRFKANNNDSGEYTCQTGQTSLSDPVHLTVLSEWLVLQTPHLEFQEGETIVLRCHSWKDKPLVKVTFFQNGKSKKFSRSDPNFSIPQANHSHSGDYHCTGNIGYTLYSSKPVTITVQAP

가용형 인간 FcγRIa = biological target: T2, 가용형 인간 FcγRIa (human, UniProt P12314 16-292, limits assumed); assay: SPR (BIACORE T200), antibody captured on rProtein L, soluble FcγR as analyte, 20C
T2 construct: also called hFcγRIa; not shown: His tag
T2 sequence (P12314 16-292 limits assumed): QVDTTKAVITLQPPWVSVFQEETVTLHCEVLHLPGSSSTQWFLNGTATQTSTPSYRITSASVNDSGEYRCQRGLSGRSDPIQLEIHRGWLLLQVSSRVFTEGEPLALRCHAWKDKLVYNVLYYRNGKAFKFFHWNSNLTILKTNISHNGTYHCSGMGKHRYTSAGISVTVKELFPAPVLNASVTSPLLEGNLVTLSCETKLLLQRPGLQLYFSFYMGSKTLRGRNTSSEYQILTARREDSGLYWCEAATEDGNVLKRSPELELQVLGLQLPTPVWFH

가용형 인간 FcγRIIIa = biological target: T3, 가용형 인간 FcγRIIIa (human, UniProt P08637 17-208, limits assumed); assay: as above
T3 construct: also called hFcγRIIIa; not shown: His tag
T3 sequence (P08637 17-208 limits assumed): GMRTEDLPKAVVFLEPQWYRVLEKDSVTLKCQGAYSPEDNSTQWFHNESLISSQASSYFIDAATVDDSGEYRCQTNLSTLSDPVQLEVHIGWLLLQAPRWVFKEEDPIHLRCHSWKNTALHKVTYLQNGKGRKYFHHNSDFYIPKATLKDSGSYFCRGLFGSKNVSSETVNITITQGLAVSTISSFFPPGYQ

가용형 필리핀 원숭이 FcγRIIIa = biological target: T4, 가용형 필리핀 원숭이 FcγRIIIa (필리핀 원숭이 (cynomolgus monkey), UniProt Q8SPW2 17-208, limits assumed); assay: as above
T4 construct: also called cynoFcγRIIIa; not shown: His tag
T4 sequence (Q8SPW2 17-208 limits assumed): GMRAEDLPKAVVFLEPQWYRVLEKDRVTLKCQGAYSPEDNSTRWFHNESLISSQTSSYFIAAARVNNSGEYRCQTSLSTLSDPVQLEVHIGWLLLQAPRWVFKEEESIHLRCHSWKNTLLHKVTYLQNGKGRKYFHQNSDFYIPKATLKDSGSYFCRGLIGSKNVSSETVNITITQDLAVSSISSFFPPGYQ

Binder	binding result (가용형 인간 FcγRIIb)	binding result (가용형 인간 FcγRIa)	binding result (가용형 인간 FcγRIIIa)	binding result (가용형 필리핀 원숭이 FcγRIIIa)
B1	binds	–	–	–
B2	–	no binding	no binding	no binding
B3	–	no binding	no binding	no binding
